Results taken from PMC8649762, “A Hyperthermoactive-Cas9 Editing Tool Reveals the Role of a Unique Arsenite Methyltransferase in the Arsenic Resistance System of Thermus thermophilus HB27” (mBio, 2021).
Read-outs that look alike come from different tables or passages of the source.

What was measured:
TtArsM (TTC0109) = target: T1, TtArsM (TTC0109) (Thermus thermophilus, UniProt Q72LF0); assay: coupled colorimetric SAH-release methyltransferase assay, […] nm; products by GC-MS; type: biochemical; conditions: methyl donor; same
T1 construct: gene TT_C0109; full-length, C-terminal His tag (pET30b NdeI/HindIII), E. coli BL21-CodonPlus(DE3)-RIL
T1 sequence (Q72LF0 1-249): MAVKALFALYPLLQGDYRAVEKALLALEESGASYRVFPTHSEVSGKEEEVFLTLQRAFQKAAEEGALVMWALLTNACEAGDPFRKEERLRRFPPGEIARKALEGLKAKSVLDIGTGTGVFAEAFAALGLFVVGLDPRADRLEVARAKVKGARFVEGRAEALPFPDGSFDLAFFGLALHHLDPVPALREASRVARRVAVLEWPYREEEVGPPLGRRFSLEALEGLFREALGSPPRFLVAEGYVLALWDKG

TtSmtB-TtArsM complex = target: T2, TtSmtB-TtArsM complex (Thermus thermophilus, UniProt Q72KG0); type: binding; conditions: 1:100 protein/arsenic ratio, arsenite preincubated with TtSmtB 10 min at 60 °C, co-IP buffer pH 7.5, weakens the protein-protein complex
T2 construct: gene smtB; recombinant TtSmtB (E. coli, C-terminal His tag removed) plus C-terminally His-tagged TtArsM; with Arsenite methyltransferase (ArsR family transcriptional regulator / SAM-dependent methyltransferase domain protein)

[1] = target: T3, TtArsM (Thermus thermophilus HB27) (UniProt Q72LF0); assay: EMSA; conditions: EMSA: 20 ng parsM, 1 ug poly(dI-dC), SYBR Gold stain; buffer, salt, pH and temperature as in previous work (refs 23, 62), not given
T3 sequence: T1 sequence (Q72LF0 1-249)

[2] = target: T4, Recombinant TtSmtB with the His tag removed (Thermus thermophilus HB27, UniProt Q72KG0 1-123); assay: co-IP; 5 μg TtSmtB (His tag removed) and 5 μg His-tagged TtArsM in co-IP buffer (50 mM Tris-HCl pH 7.5, 150 mM NaCl, 10% glycerol, 0.1% Triton X-100), 4°C, 2 h; immunoprecipitated with anti-TtSmtB antibodies and protein A-Sepharose, blot with anti-His; with or without arsenite, arsenate, cadmium or antimony at 1:0, 1:25, 1:50, 1:100 molar ratios preincubated with TtSmtB; conditions: both partners purified
T4 construct: TtSmtB, ArsR/SmtB family transcriptional repressor of Thermus thermophilus HB27; source: E. coli BL21-CodonPlus (DE3)-RIL, pET28/TtsmtB, purified; His tag removed; not shown: His tag, C-terminal, cleaved
T4 sequence (looked up): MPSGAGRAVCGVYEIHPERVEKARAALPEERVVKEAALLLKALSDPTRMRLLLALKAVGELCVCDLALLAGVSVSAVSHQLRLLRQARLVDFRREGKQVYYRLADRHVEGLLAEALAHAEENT

[3] = target: the molecule itself; assay: SEC; 500 μg purified TtArsM on analytical Superdex PC75, 50 mM Tris-HCl pH 7.5, 0.2 M KCl; calibrated with gel filtration markers

C[S+](CC[C@H](N)C(=O)O)C[C@H]1O[C@@H](n2cnc3c(N)ncnc32)[C@H](O)[C@@H]1O (some centres unmarked) [SAM]
coupled colorimetric SAH-release methyltransferase assay, 510 nm; products by GC (TtArsM (TTC0109)): formation of S-adenosylhomocysteine (SAH) from SAM after transfer of methyl group(s) on the substrate

O=[As](O)(O)O [arsenate]
fold decrease in complex band intensity (TtSmtB-TtArsM complex; with arsenate): up to 3

O[As](O)O [arsenite]
fold decrease in complex band intensity (TtSmtB-TtArsM complex): up to 3

GGAAGGGGAAGCGGTGTTTCTCGCCCCCGAGGCCAATCCCCCCTACGAGGAGGCGGACCAGGCGGGAAGGCGCGCGGGGAACCGCCCCGCCCTATACTTGGGGAGATG (double strand) [parsM]
binding [1]: no binding

B1: Recombinant C-terminal His-tagged TtArsM (TTC0109) (enzyme, Thermus thermophilus HB27, UniProt Q72LF0 1-249, looked up)
chain: T1 sequence (Q72LF0 1-249)
notes: TtArsM (TTC0109) of Thermus thermophilus HB27; TtarsM gene PCR amplified from the genome and cloned NdeI/HindIII into pET30b(+); predicted mass 29.1 kDa; source: E. coli BL21-CodonPlus (DE3)-RIL, pET30b(+)/TtarsM, purified (HisTrap); not shown: His tag, C-terminal, kept
fold decrease of the co-IP band with arsenate (1:100 protein/arsenic ratio) against the complex without metal [2]: ≤ 3 fold | fold decrease of the co-IP band with arsenite (1:100 protein/arsenic ratio) against the complex without metal [2]: ≤ 3 fold | fold increase of the co-IP band with cadmium against the complex without metal [2]: ≤ 2 fold | stoichiometry N [3]: 2
